This test has as its target Flag-β2AR (UniProt P07550). Description: cell-based or functional assay.

On to β-arrestin2 (from UniProt P29067 1-410), for which the β2AR degradation after 24 hrs of isoproterenol treatment (125I CYP binding on whole HEK 293 cells; mock about 25%) lay within 6 to 7%.

The record behind these values is patent publication US20060263828A1.
